Data on 22 sequences can be found in a protein production outcome set (Wang et al. 2014).

The data set in a line: label from the status in PepcDB records.
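Further: failed if final PepcDB status was selected cloned or expressed and not failed if soluble or beyond.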

Regarding “MSKVIYKISIDLGGIVKRNFEKETKNCGKVNEEVLFKILKSNDKSEIGIKFKFKDIKSIRQFKDSVPITEYKDYEKYINRMADGEGNVLMSEKVEYFGHTSGTTGKQKLVPCTKNSRRRASKYMALLVNRFCYDNFKENWNYARGMMIADIVMTTYTKGKIPICSATSGGMKGIKHLLPYLYTSPIEVMEIKDKETALYLHLLFGLEEEELLYISGVFISNILDLFRTLEKNNKALVRDIQKGSISEELNIDEGLRKVLNKKLKPNNKRAMELEKEFKKGFKGIAKRIWPNLLYIASVTGANFSIYNDKVYYYIDSIPIYSAAYGSTEAMIGINPYASKVLYVITPSAVFYEFIPIGEKGEESFDTLLLSELKLGGRYEVVITNYAGLYRYKIGDVVKVVGFYNKCPEIEFLYRKNQVLNMAAEKTNEEHLTYAIKNTIKKLNLDLVDYTTEPDNSITPGRYIFYFEFRNNMYGFSTEKLQNILDDELRVSNLAYNRARNNKKLGMLKVEVLAPNTFDLIKEALFNKGISKNQIKIPRVIINNKIVMDIINRNKIKFVKKSVI”, the protein production result is given as “failed”.

On to “MSKVKIELFTSPMCPHCPAAKRVVEEVANEMPDAVEVEYINVMENPQKAMEYGIMAVPTIVINGDVEFIGAPTKEALVEAIKKRL”, for which the protein production result was “not failed”.

Take “MSKVNEITRESWILSTFPEWGTWLNEEIEQTVVEPNTFSMWWLGCTGIWLKSAGNTNLSIDFWCGTGKKTQKNRLMNTQHQMMRMGGVEALQPNLRTSIFPLDPFAIKEIDAVLASHDHADHIDVNVAAAVLQNCGEHVKFIGPQACVDLWLGWGVPQERCIVAKVGDVLEIGDVKIRVLDSFDRTALVTLPKGVSSYDKAILDGMDERAVNYLIETSGGSVYHSGDSHYSNYYAKHGNDYQIDVALLSYGENPRGVTDKMTSSDVLRAAESLDCQVVVPFHHDIWANFQNDPREIEVLWNMKKDRLQYQFAPFFWQVGGKYTYPTDKGRMHYQHFRGFQDIFKNEPELPYKAFL”: the protein production entry is listed as “not failed”.

As for “MSLAHKFDPSKIKKLDDPSRLELFDPEKVLKEFGLKEGMTVLDVGTGAGFYLPYLSKMVGEKGKVYAIDVQEEMVNYAWEKVNKLGLKNVEVLKSEENKIPLPDNTVDFIFMAFTFHELSEPLKFLEELKRVAKPFAYLAIIDWKKEERDKGPPPEEVYSEWEVGLILEDAGIRVGRVVEVGKYCFGVYAMIVKQEEENPLMNVPFKIPPGEGHHHHHH”, the protein production entry is recorded as “not failed”.

“MSLAHPPRLNDDKPVIWTVSVTRLFELFRDISLEFDHLANITPIQLGFEKAVTYIRKKLANERCDAIIAAGSNGAYLKSRLSVPVILIKPSGYDVLQELAKAGKLTSSIGVVTYQETIPALVAFQKTFNLRLDQRSYITEEDARGQINELKANGTEAVVGAGLITDLAEEAGMTGIFIYSAATVRQAFSDALDMTRMSLRHNTHDATRNALRTRYVLEGHHHHHH”: the protein production result is listed as “not failed”.

With “MSLAKISKIEAQKRKGRYNIYLDGKYAFPVAESVLIQFRLMKGTELDEKQIAAIATADQQAKAYSRMLDYLSYQMRTESDIVKKLKEIDTPEEFVEPILKKLRGQQLIDDHAYAASYVRTMINTDLKGPGIIRQHLRQKGIGESDIDDALTQFTPEVQAELAKKLALKLFRRYRNQPERRREQKVQQGLTTKGFSSSVYEMIKDEVVPQPDLEEGHHHHHH”, the protein production entry is “not failed”.

Consider “MSLALRGELVVDKTKRKKRRELSEEQKQEIKDAFELFDTDKDQAIDYHELKVAMRALGFDVKKADVLKILKDYDREATGKITFEDFNEVVTDWILERDPHEEILKAFKLFDDDDSGKISLRNLRRVARELGENMSDEELRAMIEEFDKDGDGEINQEEFIAIMTGDI”, for which the protein production result was “not failed”.

For the sequence “MSLANWYLDNESSRLSFTSTKNADIAEVHRFLVLHGKVDPKGLAEVEVETESISTGIPLRDERLREQVFQVHKFPVAQINAQLDMRPINNLAPGAQLELRLPLTVSLRGKSHSYNAELLATRLDERRFQVVTLEPLVIHAQDFDMVSDFNALRNAAGLSAVSLSVPVGAVLIFTAREGHHHHHH”, the protein production entry is “not failed”.

On to “MSLARTEKIYIYGASGHGLVCEDVAKNMGYKECIFLDDFKGMKFESTLPKYDFFIAIGNNEIRKKIYQKISENGFKIVNLIHKSALISPSAIVEENAGILIMPYVVINAKAKIEKGVILNTSSVIEHECVIGEFSHVSVGAKCAGNVKIGKNCFLGINSCVLPNLSLADDSILGGGATLVKNQDEKGVFVGVPAKRMEGGSHHHHHH”, for which the protein production entry is “not failed”.

As for “MSLASFPHRNLTWNDINFVHTTDTHGWYSGHINQPLYHANWGDFISFTTHMRRIAHSRNQDLLLIDSGDRHDGNGLSDITSPNGLKSTPIFIKQDYDLLTIGNHELYLWENSKQEYETVVNHFQDKYVCSNVDIRLDNGLFVPLGLKYKYFTTPIRGIRVMAFGFLFDFKRFNSGTRVTPMAETIHEPWFQEALKHEVDLIIIVGHTPISHNWGEFYQVHQYLRQFFPDTIIQYFGGHSHIRDFTVFDSLSTGLQSGRYCETVGWTSVNLDKADLNLPVRQRFSRSYIDFNTDSFKYHTNLDKEFDTAKGKLVSKLIRETRKELKLDTLIGYVKTNYYVDYVPIDHPKSIFNLLALKILKTLPKSKHEERITIINTGSIRYDLYKGPYTIDSKFIVSPFENIWVNITVPKSVATKVAAKLNDADYISASRLKPPHQYDLQVQDLSTSPHQAHFEMQEKLPKGYVTHDDFGADGDDTLHRAVVNFPVPNVIQSVEINDEVDSPVNLVFYSFITPNIIWALKELNFSTEQVPTPYSDIYLGTLLNEFVANNEGHHHHHH”, the protein production result is listed as “not failed”.

For the sequence “MSLAVTMFKRARAEIFDRNREVGISNVTTAASLVTFPVLAGILGGVVPSVRTPSAAMVSGVQHFAAGIVMAAVAGEVLPDLRSRGPLWLIVVGFSAGVAVLVALRRFDGHGEHQDGDDVGELPVGFLTVVAVDLFIDGLLVATGATVSSRTAIIITIALTVEVLFLGLAVALRLAGSGMPRIRAAATTSALSLVIAVGGVSGAVALGRAGNTVLTLVLAFAAGALLWLVVEELLVEAHETPERPWMAVMFFAGFLILYGLGVME”, the protein production entry is “failed”.

Turning to “MSLCRWAAYHGTPIFLEDVISRPGHSLIAQSAHAEECKTATNGDGFGVAWYDARPEPGLYRDVYPAWSDPNLRAVAHHVRSGLFLSHVRASTGSCISRNNCHPFAARRWCFMHNGQVGGFEAFRKQADMAIADEFYTYRKGSTDSEVLFLLALSEGLEHDPHGALARAIARLEGLSRAHGTTPHMRLSAAFSDGQTLYAARYSSDHIAPSVYYRYSHARQGWAVVSEPLETDEGDWTELRPGRMLTIGAEGAAERDFAPADLGRAAEGHHHHHH”, the protein production entry is “not failed”.

For the sequence “MSLDRTTQQPFGNGYLSVEQANLILNHLPLEITFVNKDDIFQYYNDSVPAAEMVFKRTPSQVGRNVELCHPPKVLDKVKKVFELLRNGQRDKVNMWFQSERLGKFVYVTYAAVRDQAGDFQGVLEYVQDIKPFFELDSEFNRDEGHHHHHH”, the protein production result is on record as “not failed”.

For the sequence “MSLDSDPDTLVVHTQLGTTAPGSPTYLAAVDRFREENPGVKIKNLVNGDDLAQVYETSRLARKEADVVMVNLYDKTLAWTDVGATVDVKPYLDDWGLRGRVLPAALADWTDDEGRVRAFPYFATNWPVAYNRALLDRAGVDAIPTTGDQLIAAARKLRAKGIAPVTVGGNDWTGQKLLAQIIQTFLSQDEARHVYSTGDFGVRGARLGIEYFAHLRDAGVFADKAQGLTSDSMTTQFNTEEAAVQSAMSSALAKVPEKVAGHTEVGGWPLADGAAHDGPTVIRAYTLIGFWISPNGVRKIEQVEKFLRFMYRPDVVARFVTESGRDMALRTDAVSTGFPLVGAAQRLGSEVSQVLLPDVYVPPAAAQPLITATSTSFTRGTSPARVRAALESAYRSVEGHHHHHH”, the protein production result is listed as “not failed”.

Take “MSLDSISLIKTPIEAELEDFKALFDTPLSDSNALLDSVITHIRKRNGKMMRPILVLLVARLYGAVTPATLHAAVSLELLHTASLVHDDVVDESTERRGQLSVNAIFNNKVSVLAGDYLLATSLVHAEQTNNYEIIRLVSSLGQKLAEGELLQLSNVSNHSFSEEVYFDVIRKKTAALFAACAEAAALSVQVGEEEVAFARLLGEYIGICFQIKDDIFDYFDSKKIGKPTGNDMLEGKLTLPALYALNTTKDAWAEQIAFKVKEGTATPDEIVRLIEFTKDNGGIEYACRTIEQYKKKAFDLLAALPDSNICLALRTYLDYVVAREKEGHHHHHH”: the protein production result is recorded as “not failed”.

For the sequence “MSLDSRKPGHRPVTMRDVAKAAGVSRMTVSRALKKDSPISSETRERILKVVKDMNYVPDQVAGSLTTKRSGFVGLLLPSLNNLHFAQTAQSLTDVLEQGGLQLLLGYTAYSPEREEQLVETMLRRRPEAMVLSYDGHTEQTIRLLQRASIPIVEIWEKPAHPIGHTVGFSNERAAYDMTNALLARGFRKIVFLGEKDDDWTRGAARRAGFKRAMREAGLNPDQEIRLGAPPLSIEDGVAAAELILQEYPDTDCIFCVSDMPAFGLLSRLKSIGVAVPEQVSVVGFGNFEVSRFASPEISTVRVDPIAIGRETGSLILRLLDPKQRSPQTAQHITLPPVLEFRPSLKNEGHHHHHH”, the protein production entry is on record as “not failed”.

On to “MSLDTVDKLVVFLAKRDGIDKLVKTFQYVAKLACWHVEATRPEAADRFKKWEVASGLSRKAFRTGRSLTGFNALRRNPGATPMIRFLAVLANSGEMVYFFFDHFLWLSRIGSIDAKLAKKMSFISAFGESFGYTFFIIIDCIFIKQRLKSLKKLQHSTDEPKEEIGAKISEIRGDIVMRLMGISANVADLLIALAEIHPNPFCNHTITLGISGLVSAWAGWYRNWPS”, for which the protein production entry is recorded as “failed”.

On to “MSLEAGAGAPLARYAAWRRAGDFIFLSGIIPVNPLTGTIVNGFQDVPEPVRELLGATGEFSTDAKQGPILAQSWYVLESIRRTVASAGGQMSDVIKLVQYFRNLDHFPYYSRVRKLFYPDQPPVSTVVQVSEMLPDATVLIEVEATVWLPPSFNSEAEGHHHHHH”, for which the protein production result is “not failed”.

On to “MSLEAIHRSTRIEFSKSSLAYNVQYTKQVSGAKTLWLAVKSNAYGHGLLQVSKIARECGVDGLAVSVLDEGIAIRQAGIDDFILILGPIDVKYAPIASKYHFLTTVSSLDWLKSADKILGKEKLSVNLAVDTGMNRIGVRSKKDLKDEIEFLQEHSDHFSYDGIFTHFASSDNPDDHYFQRQKNRWYELIDGLIMPRYVHVMNSGAAMYHSKELPGCNSIARVGTVVYGVEPSEGVLGPIDKLKPVFELKSALTFVKKIPAGEGISYGSKFVTSRDTWIGTLPIGYGDGWLAEYQDFQLLIDGQKCRQVGQIAMDQMMVALPHEYPIGTEVTLIGKSGKYENTLYDLHKHSGVPPWKITVAFSDRLKRMVVDEGHHHHHH”, for which the protein production entry is “not failed”.

On to “MSLEILTAGPMLTVQDAGRFGLRHMGVSPAGPIDRAAMALANALVGNDPGAAALEFAGPAGRFRCDRPVRFAVAGADCPLRIDARTVSPGESHRLNPGETLTVGVPEGAVWAYLAFSGAIASPEVLGSRATHLRSGVGGRALGAGDRLPLGEDDPEAPCLRPGLRLEAAAPFRETGPIRLILGPQDDHFAPEVIARLTGCDFTVTPQRDRMAMVLGGVELPAERGHDIVSDGTVPGSVQVPGSGTPLVLLAESQTTGGYPKIGTVASVDLARLAQMPVGARFRFALISAREGEDLWIARQAR”, for which the protein production result is recorded as “failed”.

As for “MSLEPSQIMPLSVLIAEDNDICRLVAAKALEKCTNDITVVTNGLQALQAYQNRQFDVIIMDIQMPVMDGLEAVSEIRNYERTHNTKRASIIAITADTIDDDRPGAELDEYVSKPLNPNQLRDVVLTCHSEGAEGHHHHHH”, the protein production result is “not failed”.

Consider “MSLERNYEESALFEHQFWLKVLTDHAQFLLDALAPKEKEDIKKATYFVETFTNLLNKVRNVNLMAFSKEAEQAAKEIRAFKLNIIQKQLEGKITIHFTPTFINHMVNEVEEYIAVLEFLKKGEVPPVFHELHYHLVWLTDAAGHAGSISGGLDLVEKRLKEKSEEFTKHFEQFYLKAVEMTGYLRTELHHFPALKKFTKDVSLELKLFSHFLHEVEELELSNEVLSVLSARMADHMAREECYYLLKLAQSSGLEMPKCNPLEGHHHHHH”, for which the protein production entry is recorded as “not failed”.
